Broadly, the EC50 is the concentration at which the effect is half-maximal.

Assay [1] deals with T1, human LRRC15 expressed on cells (human, UniProt Q8TF66 22-581).
T1 construct: whole, on cells; On HEK293 cells transfected with LRRC15/ZsGreen1 (Retrogenix), on HT29 cells transfected with human LRRC15, and endogenous on Saos-2; also called LRRC15/ZsGreen1 transfected HEK293 cells; HT29-LRRC15
T1 sequence (looked up): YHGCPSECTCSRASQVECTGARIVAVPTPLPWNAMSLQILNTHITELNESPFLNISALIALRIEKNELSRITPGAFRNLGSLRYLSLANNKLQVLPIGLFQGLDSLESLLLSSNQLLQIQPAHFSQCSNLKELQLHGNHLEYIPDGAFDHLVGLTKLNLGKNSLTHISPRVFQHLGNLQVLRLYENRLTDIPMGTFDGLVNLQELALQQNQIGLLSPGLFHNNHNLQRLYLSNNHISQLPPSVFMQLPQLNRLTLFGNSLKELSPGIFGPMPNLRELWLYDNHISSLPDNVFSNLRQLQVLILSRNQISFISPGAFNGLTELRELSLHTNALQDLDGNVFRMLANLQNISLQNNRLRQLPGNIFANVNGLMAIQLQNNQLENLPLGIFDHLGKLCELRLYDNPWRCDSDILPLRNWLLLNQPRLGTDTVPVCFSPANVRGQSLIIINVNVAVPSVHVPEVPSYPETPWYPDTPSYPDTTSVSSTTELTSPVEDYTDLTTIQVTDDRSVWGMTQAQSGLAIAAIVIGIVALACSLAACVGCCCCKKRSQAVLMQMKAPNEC
The experiment in a line: flow cytometry, transfected HEK293. (A flow cytometer gives signals particle by particle.)
From the text: Shown is the Median Fluorescence of AF647-labeled secondary antibody versus antibody concentration as determined by flow cytometry.

The target of assay [2] is T2, Cathepsin S (CTSS) on transfected HEK293 cells (human, UniProt P25774 115-331).
T2 construct: whole, on cells; also called CTSS/ZsGreen1
T2 sequence (P25774 115-331): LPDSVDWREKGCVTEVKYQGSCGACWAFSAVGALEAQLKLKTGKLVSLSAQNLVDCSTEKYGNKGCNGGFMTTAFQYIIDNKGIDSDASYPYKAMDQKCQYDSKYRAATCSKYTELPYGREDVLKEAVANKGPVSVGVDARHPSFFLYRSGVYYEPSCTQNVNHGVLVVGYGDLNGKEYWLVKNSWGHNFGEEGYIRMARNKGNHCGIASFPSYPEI
Put plainly: flow cytometry, live transfected HEK293 cells.

Assay [3] has as its target T1, human LRRC15 expressed on cells. The experiment in a line: flow cytometry, transfected HEK293. The source holds these as a separate data set.
Assay [4] has the same target. Put plainly: flow cytometry, transfected HEK293; TPP-12942, first of the three values listed 'respectively'.
From the text: Plotted is the Median AF647 Fluorescence versus antibody concentration. Background binding of each antibody to the cells (i.e. binding to ZsGreen1-only transfectants) is subtracted from the LRRC15 transfected cells at each antibody dose.
Shown is the median fluorescence of AF647 labeled secondary antibody versus antibody concentration as determined by flow cytometry. Background binding of each antibody to the cells (i.e. binding to ZsGreen1 only transfectants) can be subtracted from the LRRC15 transfected cells for each antibody concentration.
For assay [5] the target is unchanged. The experiment in a line: flow cytometry, transfected HEK293. This is another data set of the same source.
Assay [6] addresses T3, Ephrin type-B receptor 6 (EPHB6) on transfected HEK293 cells (human, UniProt O15197 32-1021).
T3 construct: whole, on cells; also called EPHB6/ZsGreen1
T3 sequence (looked up): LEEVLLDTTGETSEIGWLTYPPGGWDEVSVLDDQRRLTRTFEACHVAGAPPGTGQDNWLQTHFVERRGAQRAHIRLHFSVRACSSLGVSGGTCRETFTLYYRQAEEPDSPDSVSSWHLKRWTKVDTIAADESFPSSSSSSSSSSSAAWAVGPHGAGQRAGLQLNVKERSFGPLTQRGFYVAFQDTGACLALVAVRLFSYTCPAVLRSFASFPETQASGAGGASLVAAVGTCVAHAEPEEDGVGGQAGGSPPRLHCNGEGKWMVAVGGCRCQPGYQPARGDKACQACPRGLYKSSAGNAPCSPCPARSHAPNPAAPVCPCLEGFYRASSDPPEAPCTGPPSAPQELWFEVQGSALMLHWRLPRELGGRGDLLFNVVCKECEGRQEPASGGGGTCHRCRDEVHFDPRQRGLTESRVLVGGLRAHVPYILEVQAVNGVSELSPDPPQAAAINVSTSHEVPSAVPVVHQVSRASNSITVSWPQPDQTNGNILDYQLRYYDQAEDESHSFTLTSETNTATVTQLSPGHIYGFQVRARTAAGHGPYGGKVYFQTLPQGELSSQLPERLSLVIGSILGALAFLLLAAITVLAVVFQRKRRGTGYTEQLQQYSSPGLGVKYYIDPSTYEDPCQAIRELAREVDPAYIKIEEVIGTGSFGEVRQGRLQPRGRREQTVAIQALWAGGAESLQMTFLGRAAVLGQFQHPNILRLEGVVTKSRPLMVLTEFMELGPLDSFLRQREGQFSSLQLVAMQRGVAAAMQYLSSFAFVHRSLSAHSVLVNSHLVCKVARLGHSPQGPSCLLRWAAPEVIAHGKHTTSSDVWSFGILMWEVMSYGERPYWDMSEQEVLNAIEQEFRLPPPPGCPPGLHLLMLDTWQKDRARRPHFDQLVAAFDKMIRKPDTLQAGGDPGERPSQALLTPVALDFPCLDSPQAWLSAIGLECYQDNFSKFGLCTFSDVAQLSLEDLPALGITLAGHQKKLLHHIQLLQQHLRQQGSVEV
The experiment in a line: flow cytometry, live transfected HEK293 cells.

For assay [7], the target named is T3, Ephrin type-B receptor 6 (EPHB6) on …. The experiment in a line: flow cytometry, transfected HEK293, 0 µg/ml.
Assay [8] has the same target. Put plainly: flow cytometry, transfected HEK293, 0.1 µg/ml.
The target is the same in assay [9]. Put plainly: flow cytometry, transfected HEK293, 0.5 µg/ml.
The target is the same in assay [10]. The experiment in a line: flow cytometry, transfected HEK293, 2.5 µg/ml.
Assay [11] has the same target. The experiment in a line: flow cytometry, transfected HEK293, 0.02 µg/ml.
Assay [12] shares this target. The experiment in a line: flow cytometry, transfected HEK293, 12.5 µg/ml.
Assay [13] shares this target. The experiment in a line: flow cytometry, transfected HEK293, 62.5 µg/ml.
The target is the same in assay [14]. Put plainly: flow cytometry, transfected HEK293, 0.004 µg/ml.

Positions count from the first letter of the chain named.

B1: TPP-14389 (antibody, human IgG1, kappa, V domains shown)
VH: EVQLLESGGGLVQPGGSLRLSCAASGFTFSGYMMSWVRQAPGKGLEWVSGIYPSPGYTYYADSVKGRFTISRDNSKNTLYLQMNSLRAEDTAVYYCAREKASDLFGSYSEALDYWGQGTLVTVSS
VL: DIQMTQSPDSLSASVGDRVTITCRASQDVGSWLAWYQQKPGKAPKLLIFAASSLESGIPSRFSGSGSGTDFTLTISSLQPEDFATYYCQQANGFPLTFGGGTKVEIKR
notes: also called 13612-rec02-hIgG1Kappa
Turning to B1, the midpoint of the response in assay [1], the EC50, lay at 0.26 µg/mL. For the same molecule, the binding result in assay [2] is listed as “no binding (tested: up to 62.5 µg/ml)”.

B2: TPP-12942 (antibody, human IgG1, kappa, V domains shown)
VH: EVQLVQSGAEVKKPGASVKVSCKASGYKFSSYWIEWVKQAPGQGLEWIGEILPGSDTTNYNEKFKDRATFTSDTSINTAYMELSRLRSDDTAVYYCARDRGNYRAWFGYWGQGTLVTVSS
VL: DIQMTQSPSSLSASVGDRVTITCRASQDISNYLNWYQQKPGGAVKFLIYYTSRLHSGVPSRFSGSGSGTDYTLTISSLQPEDFATYFCQQGEALPWTFGGGTKVEIKR
notes: Prior art humanized IgG1 kappa antibody, used as comparator; also called huM25; huM25-hIgG1Kappa
B2: the concentration for a half-maximal effect (EC50) was 1.4 µg/mL in [3] and 0.2 µg/mL in assay [4].

B3: TPP-17421 (antibody, human IgG1, kappa, V domains shown)
VH: B2 VH with T57W, G108Q
VL: B2 VL with D28S, N31S, V44P, T51A, R53S, H55Q, F87Y, E92L, A93E
notes: also called 438H-M306-C11-hIgG1Kappa
With B3, in assay [5], the 50% effective concentration (EC50) was 0.42 µg/mL. In assay [6], the binding result was “no binding (tested: up to 62.5 µg/ml)”. The “Median Fluorescence AF647” value in [7] stood at 628; in assay [8], 2810; in assay [9] it was 3150; in assay [10], 4150; in assay [11], 1770; in [12], 5390. Besides, the “Median Fluorescence AF647” value in assay [13] amounted to 9050; in assay [14], 1250.

B4: TPP-17078 (antibody, human IgG1, kappa, V domains shown)
VH: B2 VH
VL: B2 VL with D28S, N31S, V44P, T51A, R53S, H55Q, F87Y, E92F, A93S
notes: also called 438H-M308-H05-hIgGkappa
In the case of B4, the “Median Fluorescence AF647” value is 633 in assay [7]; 3190 in assay [8]; 3680 in [9]; 5480 in [10]; 2540 in [11]; 7970 in [12]. Besides, the “Median Fluorescence AF647” value turned out to be 14600 in assay [13] and 1780 in [14].
